According to patent publication US20210253718A1 (MODMAB THERAPEUTICS, published 2021):

How the values were obtained:
[1] = target: T1, FZD6 cysteine-rich domain (CRD), MYC-tagged and GPI-anchored on CHO cells (human, UniProt O60353 20-146, GPI anchor); assay: immunofluorescence, CHO-CRD cells
T1 construct: also called FZD6 CRD; CHO-myc-FZDGPI; not shown: MYC tag and GPI anchor signal
T1 sequence: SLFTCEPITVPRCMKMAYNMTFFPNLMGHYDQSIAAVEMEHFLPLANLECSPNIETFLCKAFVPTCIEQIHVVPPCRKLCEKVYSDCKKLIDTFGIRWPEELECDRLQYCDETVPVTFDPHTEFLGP

[2] = target: T2, FZD4 cysteine-rich domain (CRD), MYC-tagged and GPI-anchored on CHO cells (human, UniProt Q9ULV1 42-167, GPI anchor); assay: immunofluorescence, CHO-CRD cells
T2 construct: also called FZD4 CRD; CHO-myc-FZDGPI; not shown: MYC tag and GPI anchor signal
T2 sequence: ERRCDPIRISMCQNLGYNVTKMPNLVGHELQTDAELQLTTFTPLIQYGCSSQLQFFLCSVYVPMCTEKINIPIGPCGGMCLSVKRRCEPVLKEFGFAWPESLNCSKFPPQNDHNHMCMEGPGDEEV

[3] = target: T3, FZD3 cysteine-rich domain (CRD), MYC-tagged and GPI-anchored on CHO cells (human, UniProt Q9NPG1 24-150, GPI anchor); assay: immunofluorescence, CHO-CRD cells
T3 construct: domain: cysteine-rich domain (CRD); also called FZD3 CRD; CHO-myc-FZDGPI; not shown: MYC tag and GPI anchor signal
T3 sequence (looked up): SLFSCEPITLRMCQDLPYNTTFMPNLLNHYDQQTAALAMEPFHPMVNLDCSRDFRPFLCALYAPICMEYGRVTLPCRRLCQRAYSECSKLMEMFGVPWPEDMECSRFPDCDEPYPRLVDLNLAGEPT

[4] = target: T4, FZD10 cysteine-rich domain (CRD), MYC-tagged and GPI-anchored on CHO cells (human, UniProt Q9ULW2 30-156, GPI anchor); assay: immunofluorescence, CHO-CRD cells
T4 construct: also called FZD10 CRD; CHO-myc-FZDGPI; not shown: MYC tag and GPI anchor signal
T4 sequence: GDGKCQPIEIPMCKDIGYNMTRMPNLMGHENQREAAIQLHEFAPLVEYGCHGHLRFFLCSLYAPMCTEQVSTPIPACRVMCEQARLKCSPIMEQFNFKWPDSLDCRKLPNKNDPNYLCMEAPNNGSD

[5] = target: T5, FZD8 cysteine-rich domain (CRD), MYC-tagged and GPI-anchored on CHO cells (human, UniProt Q498S8 31-155 (rat entry), GPI anchor); assay: immunofluorescence, CHO-CRD cells
T5 construct: also called FZD8 CRD; CHO-myc-FZDGPI; not shown: MYC tag and GPI anchor signal
T5 sequence: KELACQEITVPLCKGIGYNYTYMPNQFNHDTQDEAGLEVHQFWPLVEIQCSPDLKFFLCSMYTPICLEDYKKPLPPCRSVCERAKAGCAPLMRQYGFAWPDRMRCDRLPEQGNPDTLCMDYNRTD

[6] = target: T6, FZD9 cysteine-rich domain (CRD), MYC-tagged and GPI-anchored on CHO cells (human, UniProt O00144 35-161, GPI anchor); assay: immunofluorescence, CHO-CRD cells
T6 construct: also called FZD9 CRD; CHO-myc-FZDGPI; not shown: MYC tag and GPI anchor signal
T6 sequence: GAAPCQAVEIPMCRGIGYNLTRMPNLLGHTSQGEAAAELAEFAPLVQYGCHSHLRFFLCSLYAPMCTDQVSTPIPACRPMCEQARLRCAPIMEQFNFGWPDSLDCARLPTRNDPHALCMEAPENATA

[7] = target: FZD7 cysteine-rich domain (CRD), MYC-tagged and GPI-anchored on CHO cells (human, UniProt O75084 45-169); assay: flow cytometry, CHO-CRD cells;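 further: flow cytometry of Fab binding to CHO cells overexpressing a Frizzled CRD, with binding defined as median fluorescence over twice that of CHO cells lacking any Frizzled CRD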
Protocol: (§1) Binding was measured via flow cytometry analysis of CHO cells overexpressing CRD of FZD1, FZD2, FZD3, FZD4, FZD5, FZD6, FZD7, FZD8, FZD9 or FZD10. Median fluorescence values are shown.

[8] = target: T1, FZD6 cysteine-rich domain (CRD), …; assay: flow cytometry, CHO-CRD cells;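 further: flow cytometry of Fab binding to CHO cells overexpressing a Frizzled CRD, with binding defined as median fluorescence over twice that of CHO cells lacking any Frizzled CRD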
Protocol: as §1

[9] = target: FZD1 cysteine-rich domain (CRD), MYC-tagged and GPI-anchored on CHO cells (human); assay: flow cytometry, CHO-CRD cells;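 further: flow cytometry of Fab binding to CHO cells overexpressing a Frizzled CRD, with binding defined as median fluorescence over twice that of CHO cells lacking any Frizzled CRD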
Protocol: as §1

[10] = target: T7, FZD5 cysteine-rich domain (CRD), MYC-tagged and GPI-anchored on CHO cells (human, UniProt Q13467 29-156, GPI anchor); assay: flow cytometry, CHO-CRD cells;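 further: flow cytometry of Fab binding to CHO cells overexpressing a Frizzled CRD, with binding defined as median fluorescence over twice that of CHO cells lacking any Frizzled CRD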
T7 construct: also called FZD5 CRD; CHO-myc-FZDGPI; not shown: MYC tag and GPI anchor signal
T7 sequence: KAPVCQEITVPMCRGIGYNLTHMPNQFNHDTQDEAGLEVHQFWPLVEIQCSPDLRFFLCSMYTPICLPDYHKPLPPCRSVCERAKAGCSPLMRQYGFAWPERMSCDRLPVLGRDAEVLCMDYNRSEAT

[11] = target: T2, FZD4 cysteine-rich domain (CRD), …; assay: flow cytometry, CHO-CRD cells
Protocol: as §1

[12] = target: T3, FZD3 cysteine-rich domain (CRD), …; assay: flow cytometry, CHO-CRD cells
Protocol: as §1

[13] = target: T4, FZD10 cysteine-rich domain (CRD), …; assay: flow cytometry, CHO-CRD cells
Protocol: as §1

[14] = target: T5, FZD8 cysteine-rich domain (CRD), …; assay: flow cytometry, CHO-CRD cells
Protocol: as §1

[15] = target: FZD2 cysteine-rich domain (CRD), MYC-tagged and GPI-anchored on CHO cells (human, UniProt Q14332 35-161); assay: flow cytometry, CHO-CRD cells
Protocol: as §1

[16] = target: T6, FZD9 cysteine-rich domain (CRD), …; assay: flow cytometry, CHO-CRD cells
Protocol: as §1

- binding result [1]: no binding
- binding result [2]: no binding
- binding result [3]: no binding
- binding result [4]: no binding
- binding result [5]: no binding
- binding result [6]: no binding
- median fluorescence [7]: 43.3
- median fluorescence [8]: 3.68
- median fluorescence [9]: 38.2
- median fluorescence [10]: 20.5
- median fluorescence [11]: 6.21
- median fluorescence [12]: 4.96
- median fluorescence [13]: 3.96
- median fluorescence [14]: 7.43
- median fluorescence [15]: 22.7
- median fluorescence [16]: 4.1
B1: Fab-2911 (Fab, V domains shown)
VH: EVQLVESGGGLVQPGGSLRLSCAASGFNIYYSSMHWVRQAPGKGLEWVAYIYPYSGYTSYADSVKGRFTISADTSKNTAYLQMNSLRAEDTAVYYCARYFWWYGFDYWGQGTLVTVSS
VL: DIQMTQSPSSLSASVGDRVTITCRASQSVSSAVAWYQQKPGKAPKLLIYSASSLYSGVPSRFSGSRSGTDFTLTISSLQPEDFATYYCQQGPWYPFTFGQGTKVEIK
notes: Fab; also called Fv-2911
